Bridge positions count the residues as written; N and C are the ends. Square brackets hold non-standard residues; d marks the D form. Primed or numbered codes have the meaning given here. Side chains are listed from the residue outwards. Ends that are not written are not given here. * marks the point of attachment. Tyr(3-NO2) = N[C@@H](Cc1ccc(O)c([N+](=O)[O-])c1)C(=O)O; Phe(4-tBu) = CC(C)(C)c1ccc(C[C@H](N)C(=O)O)cc1; Tyr(3-Cl) = N[C@@H](Cc1ccc(O)c(Cl)c1)C(=O)O; Bip = N[C@@H](Cc1ccc(-c2ccccc2)cc1)C(=O)O; Tyr(3-I) = N[C@@H](Cc1ccc(O)c(I)c1)C(=O)O; Dip = N[C@H](C(=O)O)C(c1ccccc1)c1ccccc1; Phe(4-NH2) = Nc1ccc(C[C@H](N)C(=O)O)cc1; Gd^T(3) = GdDTPA attached via thiourea; d1Nal = N[C@H](Cc1cccc2ccccc12)C(=O)O; Lys(Gd^T)Gd^T = not defined here; Pen = CC(C)(S)[C@H](N)C(=O)O; Gd^G = not defined here; Gd^T = not defined here; Gd^T″ = GdDTPA-thiourea; Cbz = O=C(OCc1ccccc1)*; Dap = NC[C@H](N)C(=O)O
What was measured:
[1] = molecular target: T1, human collagen type I, acid soluble, extracted from placenta (Sigma C7774) (human, UniProt P02452 162-1218; P08123 80-1119); assay: dried collagen assay
T1 construct: tissue extract, gelled and dried in wells; also called dried human collagen; h-Collagen

[2] = molecular target: T2, rat collagen, acid soluble, type I, rat tail (Upstate 08-115) (rat, UniProt P02454 152-1207; P02466 86-1125); assay: dried collagen assay
T2 construct: tissue extract, gelled and dried in wells; also called dried rat collagen
T2 sequence (P02454 152-1207, chain 1 of 2): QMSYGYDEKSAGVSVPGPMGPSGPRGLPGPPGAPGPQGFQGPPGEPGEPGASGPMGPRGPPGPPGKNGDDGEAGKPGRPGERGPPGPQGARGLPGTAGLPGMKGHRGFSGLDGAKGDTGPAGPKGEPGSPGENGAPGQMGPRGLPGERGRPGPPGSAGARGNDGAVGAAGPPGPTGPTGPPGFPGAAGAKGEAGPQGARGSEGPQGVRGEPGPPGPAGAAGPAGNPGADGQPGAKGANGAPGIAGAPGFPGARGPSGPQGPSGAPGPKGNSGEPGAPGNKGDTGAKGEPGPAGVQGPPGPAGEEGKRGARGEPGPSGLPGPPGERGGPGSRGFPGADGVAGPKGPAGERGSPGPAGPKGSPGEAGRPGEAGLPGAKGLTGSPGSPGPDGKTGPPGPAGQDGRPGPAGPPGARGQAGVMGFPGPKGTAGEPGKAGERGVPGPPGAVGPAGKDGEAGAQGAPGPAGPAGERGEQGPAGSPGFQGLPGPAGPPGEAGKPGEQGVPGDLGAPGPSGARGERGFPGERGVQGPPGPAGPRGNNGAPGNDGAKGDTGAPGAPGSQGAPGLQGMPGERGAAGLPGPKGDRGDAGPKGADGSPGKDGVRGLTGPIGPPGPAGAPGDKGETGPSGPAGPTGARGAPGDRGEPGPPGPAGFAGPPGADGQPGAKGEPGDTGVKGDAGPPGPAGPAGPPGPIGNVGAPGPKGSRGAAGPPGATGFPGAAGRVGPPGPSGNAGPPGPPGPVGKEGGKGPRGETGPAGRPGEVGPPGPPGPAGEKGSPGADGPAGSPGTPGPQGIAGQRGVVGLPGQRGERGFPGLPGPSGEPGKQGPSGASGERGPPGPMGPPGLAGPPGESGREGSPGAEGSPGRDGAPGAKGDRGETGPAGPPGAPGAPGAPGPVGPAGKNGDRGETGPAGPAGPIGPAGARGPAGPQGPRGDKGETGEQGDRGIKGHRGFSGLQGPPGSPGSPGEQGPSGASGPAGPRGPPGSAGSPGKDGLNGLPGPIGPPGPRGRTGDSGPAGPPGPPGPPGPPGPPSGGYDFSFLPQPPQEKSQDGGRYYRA
T2 sequence (P02466 86-1125, chain 2 of 2): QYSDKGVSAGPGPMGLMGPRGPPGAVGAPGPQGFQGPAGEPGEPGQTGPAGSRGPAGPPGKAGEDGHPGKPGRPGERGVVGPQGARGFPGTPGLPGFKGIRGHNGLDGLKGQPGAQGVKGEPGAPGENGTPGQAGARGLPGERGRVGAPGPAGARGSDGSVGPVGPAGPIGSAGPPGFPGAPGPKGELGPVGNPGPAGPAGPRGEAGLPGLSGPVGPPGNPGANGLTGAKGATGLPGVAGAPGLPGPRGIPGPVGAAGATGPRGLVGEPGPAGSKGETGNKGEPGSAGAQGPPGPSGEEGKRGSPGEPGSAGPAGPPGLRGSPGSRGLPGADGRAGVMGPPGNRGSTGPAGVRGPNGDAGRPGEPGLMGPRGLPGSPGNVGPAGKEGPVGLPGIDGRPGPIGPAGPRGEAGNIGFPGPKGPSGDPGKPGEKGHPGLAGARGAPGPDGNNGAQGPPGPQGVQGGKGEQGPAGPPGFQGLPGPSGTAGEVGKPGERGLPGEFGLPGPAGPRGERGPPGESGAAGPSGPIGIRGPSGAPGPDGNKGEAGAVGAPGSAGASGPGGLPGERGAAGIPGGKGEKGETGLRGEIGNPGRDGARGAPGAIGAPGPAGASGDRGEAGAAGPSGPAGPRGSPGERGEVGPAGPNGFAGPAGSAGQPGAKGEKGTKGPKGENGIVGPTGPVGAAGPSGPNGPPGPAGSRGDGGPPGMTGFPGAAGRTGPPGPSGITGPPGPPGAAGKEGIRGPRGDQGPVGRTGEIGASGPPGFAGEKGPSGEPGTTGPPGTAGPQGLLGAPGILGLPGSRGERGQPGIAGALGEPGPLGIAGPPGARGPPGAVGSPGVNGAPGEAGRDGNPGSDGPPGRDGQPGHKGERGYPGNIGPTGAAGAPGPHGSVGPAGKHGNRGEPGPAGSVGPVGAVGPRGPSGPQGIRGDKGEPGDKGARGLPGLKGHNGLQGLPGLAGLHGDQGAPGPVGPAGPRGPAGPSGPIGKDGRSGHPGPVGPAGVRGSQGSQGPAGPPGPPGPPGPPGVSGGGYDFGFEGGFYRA

T1 sequence (P02452 162-1218 limits assumed, chain 1 of 2): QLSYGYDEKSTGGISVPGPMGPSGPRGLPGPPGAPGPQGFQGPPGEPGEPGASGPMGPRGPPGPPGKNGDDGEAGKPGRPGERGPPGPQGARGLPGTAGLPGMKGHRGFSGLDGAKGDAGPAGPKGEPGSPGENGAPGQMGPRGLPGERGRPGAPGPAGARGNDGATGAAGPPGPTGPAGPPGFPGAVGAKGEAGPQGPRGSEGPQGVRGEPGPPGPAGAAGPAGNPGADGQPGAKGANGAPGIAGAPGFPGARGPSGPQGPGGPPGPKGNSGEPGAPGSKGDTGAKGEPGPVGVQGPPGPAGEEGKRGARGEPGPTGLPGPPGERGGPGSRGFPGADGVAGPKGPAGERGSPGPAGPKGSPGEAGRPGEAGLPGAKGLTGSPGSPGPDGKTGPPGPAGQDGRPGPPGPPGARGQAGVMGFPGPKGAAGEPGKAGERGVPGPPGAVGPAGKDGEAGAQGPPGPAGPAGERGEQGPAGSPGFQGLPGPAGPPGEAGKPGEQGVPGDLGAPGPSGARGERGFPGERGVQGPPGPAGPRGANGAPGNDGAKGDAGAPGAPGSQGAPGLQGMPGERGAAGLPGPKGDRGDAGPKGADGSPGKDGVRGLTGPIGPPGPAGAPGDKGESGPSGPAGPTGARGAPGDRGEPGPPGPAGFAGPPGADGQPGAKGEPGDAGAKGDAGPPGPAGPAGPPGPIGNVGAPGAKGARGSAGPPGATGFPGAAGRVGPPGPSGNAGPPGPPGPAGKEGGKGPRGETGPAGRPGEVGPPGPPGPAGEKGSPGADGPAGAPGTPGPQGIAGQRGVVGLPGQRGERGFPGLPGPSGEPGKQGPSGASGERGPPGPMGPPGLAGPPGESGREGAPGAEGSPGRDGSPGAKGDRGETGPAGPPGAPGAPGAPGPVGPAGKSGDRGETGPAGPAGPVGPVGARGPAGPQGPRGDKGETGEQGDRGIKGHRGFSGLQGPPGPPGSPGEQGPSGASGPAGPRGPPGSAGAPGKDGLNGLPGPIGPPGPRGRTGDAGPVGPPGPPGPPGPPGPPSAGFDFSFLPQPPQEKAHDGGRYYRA
T1 sequence (P08123 80-1119 limits assumed, chain 2 of 2): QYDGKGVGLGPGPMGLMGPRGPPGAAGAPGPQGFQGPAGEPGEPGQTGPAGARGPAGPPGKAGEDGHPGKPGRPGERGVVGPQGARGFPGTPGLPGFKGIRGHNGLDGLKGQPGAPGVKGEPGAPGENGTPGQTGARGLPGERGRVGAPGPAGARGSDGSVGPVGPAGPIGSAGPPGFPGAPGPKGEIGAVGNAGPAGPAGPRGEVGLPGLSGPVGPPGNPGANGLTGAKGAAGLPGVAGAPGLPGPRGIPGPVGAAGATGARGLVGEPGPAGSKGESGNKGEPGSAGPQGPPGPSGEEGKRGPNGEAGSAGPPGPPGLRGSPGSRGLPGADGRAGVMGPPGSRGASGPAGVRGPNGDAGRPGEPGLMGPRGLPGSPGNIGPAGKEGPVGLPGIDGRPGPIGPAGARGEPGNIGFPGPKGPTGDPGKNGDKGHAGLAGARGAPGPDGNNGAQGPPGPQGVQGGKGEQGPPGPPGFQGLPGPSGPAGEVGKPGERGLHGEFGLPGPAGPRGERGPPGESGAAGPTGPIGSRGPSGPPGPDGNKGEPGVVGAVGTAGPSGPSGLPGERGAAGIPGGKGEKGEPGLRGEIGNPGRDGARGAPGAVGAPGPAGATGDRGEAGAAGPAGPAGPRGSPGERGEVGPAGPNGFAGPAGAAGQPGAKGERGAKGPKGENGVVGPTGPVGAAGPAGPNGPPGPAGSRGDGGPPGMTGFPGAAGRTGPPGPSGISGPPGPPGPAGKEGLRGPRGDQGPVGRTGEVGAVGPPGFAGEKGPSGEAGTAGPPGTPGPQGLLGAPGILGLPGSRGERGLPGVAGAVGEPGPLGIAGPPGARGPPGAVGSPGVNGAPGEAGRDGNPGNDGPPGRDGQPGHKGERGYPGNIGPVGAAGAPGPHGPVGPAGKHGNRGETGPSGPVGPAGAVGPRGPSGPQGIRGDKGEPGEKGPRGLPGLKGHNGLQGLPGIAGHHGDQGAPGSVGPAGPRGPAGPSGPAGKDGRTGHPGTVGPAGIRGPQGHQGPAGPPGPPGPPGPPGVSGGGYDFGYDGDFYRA

Binder | % bound [1] [%] | % bound [2] [%]
{Gd^G}-DWTCS[dR]DEYTWHCNYE (disulfide 4-13 (inferred); not fully specified (C-terminus); reading uncertain) [Compound ID 821] | 56 | 29
{Gd^T}-DWTCS[dL]DEYTWHCNYE (disulfide 4-13 (inferred); not fully specified (C-terminus); reading uncertain) [Compound ID 847] | 16 | 
{Gd^T″}-DWTC[Phe(4-tBu)]GDEYTWHCNYE (disulfide 4-13 (inferred); not fully specified (C-terminus)) [Compound ID 827] | 41 | 20
{Gd^T″}-DWTC[Tyr(Bn,3-Cl)]GDEYTWHCNYE (disulfide 4-13 (inferred); not fully specified (C-terminus)) [Compound ID 825] | 61 | 63
{Gd^T}-DWTCYGDEYTWHCNYE (disulfide 4-13 (inferred); not fully specified (C-terminus); reading uncertain) [Compound ID 844] | 68 | 48
{Gd^T}-DWTC[Tyr(3-NO2)]GDEYTWHCNYE (disulfide 4-13 (inferred); not fully specified (C-terminus); reading uncertain) [Compound ID 843] | 55 | 36
{Gd^T″}-DWTCS[dS]DEYTWHCNYE (disulfide 4-13 (inferred); not fully specified (C-terminus)) [Compound ID 836] | 13 | 
{Gd^T″}-DWTCS[dY]DEYTWHCNYE (disulfide 4-13 (inferred); not fully specified (C-terminus)) [Compound ID 829] | 20 | 21
{Gd^T}-DWTCSGDEYRWHCNYE (disulfide 4-13 (inferred); not fully specified (C-terminus); reading uncertain) [Compound ID 845] | 36 | 10
{Gd^G}-DWTCRGDEYTWHCNYE (disulfide 4-13 (inferred); not fully specified (C-terminus); reading uncertain) [Compound ID 822] | 47 | 20
{Gd^T}-DWTCSGDEYTWYCNYE (disulfide 4-13 (inferred); not fully specified (C-terminus); reading uncertain) [Compound ID 842] | 23 | 9
{Gd^T″}-GQWTCSGDEYAWHCNY[dE] (disulfide 5-14 (inferred); not fully specified (C-terminus)) [Compound ID 832] | 12 | 
{Gd^T″}-GQWTCSGDEYTWACNYE (disulfide 5-14 (inferred); not fully specified (C-terminus)) [Compound ID 833] | 13 | 
{Gd^T}-GQWACSGDEYTWHCNYE (disulfide 5-14 (inferred); not fully specified (C-terminus); reading uncertain) [Compound ID 840] | 15 | 
{Gd^T″}-GQWHCTTD[Phe(4-NH2)](Gd^T″)PHHYCLYG (disulfide 5-14 (inferred)) [Compound ID 885] | 16 | 
Cbz-GQWHCTK(Gd^T″)RFPHHYCLYG (disulfide 5-14 (inferred)) [Compound ID 940] | 9 | 
{Gd^T″}-GQWHCTTD[Tyr(3-Cl)]PHHYCLYG (disulfide 5-14 (inferred); not fully specified (C-terminus)) [Compound ID 895] |  | 0
{Gd^T″}-GQWHCTDRFPHHYCLYG (disulfide 5-14 (inferred)) [Compound ID 936] | 9 | 
{Gd^T″}-GQWHCTTRFPHH[dT]CLYG (disulfide 5-14 (inferred); not fully specified (C-terminus)) [Compound ID 905] |  | 2
{Gd^T″}-K(Gd^T″)K(Lys(Gd^T)Gd^T)WHCYTYFPHHYCVYG (disulfide 5-14 (inferred); reading uncertain) [Compound ID 1003] |  | 47

Binder | % bound [1] [%] | % bound [2] [%]
{Gd^T″}-GQWHCTTRFPHH[dR]CLYG (disulfide 5-14 (inferred); not fully specified (C-terminus)) [Compound ID 902] |  | 2
{Gd^T″}-GQWHCT[dN]RFPHHYCLYG (disulfide 5-14 (inferred); not fully specified (C-terminus)) [Compound ID 897] |  | 1
{Gd^T″}-GQWHCT[dR]RFPHHYCLYG (disulfide 5-14 (inferred); not fully specified (C-terminus)) [Compound ID 900] |  | 1
{Gd^T″}-GK([Gly-Gd^T″])WHCTTLFPHHVCLYG (disulfide 5-14 (inferred)) [Compound ID 966] | 14 | 
{Gd^T″}-GQWHCT[dS]RFPHHYCLYG (disulfide 5-14 (inferred); not fully specified (C-terminus)) [Compound ID 898] |  | 3
{Gd^T″}-GK([Gly-Gd^T″])WH[dC]TTK(Gd^T″)FPHHYCLY[Bip] (disulfide 5-14) [Compound ID 1019] | 14 | 
{Gd^T(3)}-GK([Gly-Gd^T(3)])WHCTTYFPHH[Bip]CLYG (disulfide 5-14) [Compound ID 951] |  | 32
{Gd^G}-PWTCSGDEYAWHCNY[dE] (disulfide 4-13 (inferred); not fully specified (C-terminus); reading uncertain) [Compound ID 824] | 12 | 0
{Gd^T″}-DWTCS[dA]DEYTWHCNYE (disulfide 4-13 (inferred); not fully specified (C-terminus)) [Compound ID 835] | 17 | 9
{Gd^T″}-DWTC[Phe(4-CO2H)]GDEYTWHCNYE (disulfide 4-13 (inferred); not fully specified (C-terminus)) [Compound ID 828] | 52 | 20
{Gd^T″}-DWTCSGDEYYWHCNYE (disulfide 4-13 (inferred); not fully specified (C-terminus)) [Compound ID 834] | 22 | 9
{Gd^T″}-DWTCSGDEYTWHCN[Tyr(3-I)]E (disulfide 4-13 (inferred); not fully specified (C-terminus)) [Compound ID 831] | 50 | 21
{Gd^T}-DWTCSGDE[Tyr(3-I)]TWHCNYE (disulfide 4-13 (inferred); not fully specified (C-terminus); reading uncertain) [Compound ID 846] | 31 | 9
{Gd^T}-DWTCSGDEYTWHCNYE (disulfide 4-13 (inferred); not fully specified (C-terminus); reading uncertain) [Compound ID 848] | 35 | 9
{Gd^T″}-GK([Gly-Gd^T″])WHCTTYFPHH[Dip]CLYG (disulfide 5-14 (inferred); not fully specified) [Compound ID 968] | 77 | 
{Gd^T″}-GK([Gly-Gd^T″])WHCTTYFPHHYCL[Dip]G (disulfide 5-14 (inferred); not fully specified) [Compound ID 967] | 11 | 
{Gd^T(3)}-GQWHCTTRFPHHY[Pen]LYG (disulfide 5-14; not fully specified (C-terminus)) [Compound ID 906] | 13 | 
{Gd^T″}-GQWHCTTDFPH[Dap]YCLYG (disulfide 5-14) [Compound ID 886] |  | 13
{Gd^T(3)}-GQWHCTTRFPHH[d1Nal]CLYG (disulfide 5-14; not fully specified (C-terminus)) [Compound ID 904] | 0 | 

From US20080044360A1 (COLLAGEN MEDICAL, published 2008)
